The text below walks through data of the supplement of paper PMC10724198.

± gives the standard deviation of the averaged measurements.
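Also: PSI is a weighted mean of sequencing reads over stability bins, variants kept only with over 10 reads, mCherry proximal and sfGFP distal, peptide attached via GGGS linker.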

This data set has as its system Saccharomyces cerevisiae. The data set can be described thus: protein stability index of tFT-peptide fusion (C-terminal peptide) (PSI (0-1 scale)); higher = more stable (slower turnover). The following applies: genetic background: wild type; temperature: 30 C.
Take LFPCPLRPGCLP: the protein stability index amounted to 0.699 ± 0.099.

LFPLAPRRLAPP came in with a protein stability index of 0.628 ± 0.069.

For the sequence LFPLPHPLPVSL, the protein stability index amounted to 0.6146 ± 0.0053.

For LFPPPPPSPRCL, the protein stability index was 0.637 ± 0.055.

LFRPFATALFPL had a protein stability index of 0.747 ± 0.066.

In turn, LFRWLLRLVISH showed a protein stability index of 0.608 ± 0.021.

Sequence LFSLPPPSPPPR displayed a protein stability index of 0.694 ± 0.03.

Sequence LFTPLLVPYPTP showed a protein stability index of 0.522 ± 0.0028.

For the sequence LFVYSSVALSSQ, the protein stability index worked out at 0.59301 ± 0.00049.

LFYFFGKRPAHL: the protein stability index is 0.781 ± 0.045.

Turning to LGAHLSTAPPPP, the protein stability index is 0.655 ± 0.022.

The sequence LGDVRRENKQLP came in with a protein stability index of 0.6981 ± 0.003.

On to LGFVGVRSVRSG, for which the protein stability index is 0.667 ± 0.059.

For the sequence LGGGGPSVREGE, the protein stability index was determined as 0.679 ± 0.05.

The sequence LGGGGVGGVRGV showed a protein stability index of 0.6675 ± 0.0046.

LGGLLLCLGLSG had a protein stability index of 0.674 ± 0.058.

In turn, LGGRGGACRRDR displayed a protein stability index of 0.7 ± 0.019.

Sequence LGHQFKGTILRV yielded a protein stability index of 0.73 ± 0.059.

LGKVAGLGAGRP showed a protein stability index of 0.719 ± 0.034.

In turn, LGPFTEAVSRHC came in with a protein stability index of 0.67 ± 0.021.

For the sequence LGQRFRLFVSFF, the protein stability index was determined as 0.468 ± 0.077.

Turning to LGRAGMWTRRGL, the protein stability index came to 0.663 ± 0.034.

The sequence LGRCRQTERETS yielded a protein stability index of 0.649 ± 0.089.

Consider LGRGRWSVLVVR, for which the protein stability index amounted to 0.5287 ± 0.0014.

For the sequence LGSFLPLLPSPP, the protein stability index was 0.674 ± 0.041.

For LGSGVQGEGRGW, the protein stability index was 0.678 ± 0.042.

LGTVPLLPPRSP: the protein stability index worked out at 0.713 ± 0.028.

Take LGVIHPSVYFCL: the protein stability index is 0.5416 ± 0.0023.

In turn, LGVMLLEGWRVM displayed a protein stability index of 0.656 ± 0.018.

Take LGVPGSGDGEWW: the protein stability index was 0.592 ± 0.029.

LGVVSCAVVGFV came in with a protein stability index of 0.625 ± 0.041.

As for LGWGGGGPLSGG, the protein stability index turned out to be 0.7197 ± 0.0054.

For LGWWWVWSWGRG, the protein stability index was 0.668 ± 0.04.

With LHGFYSKKAINR, the protein stability index was 0.701 ± 0.031.

The sequence LHGLSGRLLFDV came in with a protein stability index of 0.574 ± 0.2.

LHHPPAPPLPPP came in with a protein stability index of 0.695 ± 0.018.

LHLDTMPQEKNN yielded a protein stability index of 0.668 ± 0.036.

In turn, LHPAPPAAPTRP returned a protein stability index of 0.711 ± 0.016.

Sequence LHPRPPLFLHPL returned a protein stability index of 0.692 ± 0.015.

In turn, LHRFYVGQLVVN had a protein stability index of 0.522 ± 0.0092.

For LHSNFGSSVFSL, the protein stability index amounted to 0.713 ± 0.012.

Regarding LHSPWPFSAPGI, the protein stability index was 0.855 ± 0.2.

Regarding LIGKNNTSIQLK, the protein stability index worked out at 0.742 ± 0.16.

For LIIGYFSSRVCL, the protein stability index was found to be 0.61 ± 0.074.

LILRPLPPPLPP registered a protein stability index of 0.5623 ± 0.0014.

In turn, LIMLNNIENSSI displayed a protein stability index of 0.678 ± 0.01.

For the sequence LIQHVTKLTPFF, the protein stability index was 0.694 ± 0.012.

Consider LIRFFSSSRPGS, for which the protein stability index was found to be 0.671 ± 0.15.

LIRPSAPSHRSP gave a protein stability index of 0.798 ± 0.025.

With LISFSGFSPFLW, the protein stability index came to 0.7678 ± 0.0027.

In the case of LISISNINEGVI, the protein stability index amounted to 0.688 ± 0.037.

LISPPAQLAFVP: the protein stability index is 0.696 ± 0.016.

Sequence LISRFFPSRSAP had a protein stability index of 0.854 ± 0.021.

LIVSTAGVTQFS had a protein stability index of 0.66 ± 0.012.

As to LIWHTLSTVIPF, the protein stability index came out at 0.657 ± 0.029.

With LKNKVDGKVSGK, the protein stability index came to 0.6014 ± 0.0045.

Take LKPGYQGQHKED: the protein stability index came to 0.7 ± 0.029.

Take LKPKLDFHIWDV: the protein stability index came to 0.67 ± 0.1.

In turn, LKQKMKETGRRR yielded a protein stability index of 0.666 ± 0.058.

Take LKRSDFSFLEKV: the protein stability index is 0.701 ± 0.075.

LKSGAWFFRIGY had a protein stability index of 0.66 ± 0.018.

Consider LKYETGTILRMT, for which the protein stability index was found to be 0.563 ± 0.013.

Turning to LLAFLPPPPCPP, the protein stability index is 0.709 ± 0.036.

The sequence LLATCGAIHTFC returned a protein stability index of 0.637 ± 0.01.

As for LLCFGGRGPLAD, the protein stability index worked out at 0.713 ± 0.028.

As to LLCTSSGYWAWK, the protein stability index came to 0.699 ± 0.0087.

In the case of LLFFRSPFSLVS, the protein stability index came to 0.6465 ± 0.0059.

Turning to LLFLGSSLRDTF, the protein stability index worked out at 0.759 ± 0.0098.

LLGGLHIPHPLR returned a protein stability index of 0.681 ± 0.052.

For LLGSFSLSMSSL, the protein stability index came out at 0.717 ± 0.021.

For LLINTARWSEAG, the protein stability index was 0.662 ± 0.049.

As to LLLLDPPLPPPP, the protein stability index came out at 0.684 ± 0.015.

LLLLRSPPPTPP yielded a protein stability index of 0.6722 ± 0.0021.

In the case of LLLLSTCSPLLL, the protein stability index is 0.618 ± 0.021.

LLLPPRPPPSVP gave a protein stability index of 0.742 ± 0.15.

In turn, LLLQLSPLLTSL showed a protein stability index of 0.646 ± 0.019.

Consider LLLSSPPFPALL, for which the protein stability index was determined as 0.638 ± 0.0074.

In turn, LLPLPSPLPACP yielded a protein stability index of 0.709 ± 0.02.

LLPLTWTTVQGP showed a protein stability index of 0.694 ± 0.027.

LLPPPPVPTPDR displayed a protein stability index of 0.659 ± 0.12.
